Source: article PMC6175577, “BRCT domains of the DNA damage checkpoint proteins TOPBP1/Rad4 display distinct specificities for phosphopeptide ligands” (eLife, 2018)
Residue numbers refer to the chain shown, from its start. Names and notes keep the numbering of the source.

T1: Treslin pS1001 fluorescein-labelled phosphopeptide
T1 chain: GYGDIGVVEESPEKGDEI

T2: Treslin pT969 fluorescein-labelled phosphopeptide
T2 chain: GYGLTKSVAETPVHKQIS

T3: Treslin pT969 fluorescein-labelled phosphopeptide
T3 chain: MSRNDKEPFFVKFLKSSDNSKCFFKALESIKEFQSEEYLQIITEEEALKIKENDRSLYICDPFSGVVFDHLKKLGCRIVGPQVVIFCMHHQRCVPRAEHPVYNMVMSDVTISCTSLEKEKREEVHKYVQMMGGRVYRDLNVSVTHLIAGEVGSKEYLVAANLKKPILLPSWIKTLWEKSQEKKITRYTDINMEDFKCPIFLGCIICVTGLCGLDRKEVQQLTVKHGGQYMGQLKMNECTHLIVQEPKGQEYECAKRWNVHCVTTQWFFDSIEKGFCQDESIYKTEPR

T4: Mdb1 pT113 fluorescein-labelled phosphopeptide
T4 chain: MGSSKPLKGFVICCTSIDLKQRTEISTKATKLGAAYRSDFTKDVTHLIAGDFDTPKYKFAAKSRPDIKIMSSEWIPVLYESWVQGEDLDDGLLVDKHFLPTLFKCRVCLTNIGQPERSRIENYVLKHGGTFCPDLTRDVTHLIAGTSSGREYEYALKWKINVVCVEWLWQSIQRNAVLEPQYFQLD

T5: Treslin pS1001 fluorescein-labelled phosphopeptide
T5 chain: T3 chain

T6: Mdb1 pT113 fluorescein-labelled phosphopeptide
T6 chain: T4 chain with K56E

B1: TOPBP1-BRCT0,1,2 segment, wild type (recombinant, fluorescence polarisation) K250E (protein)
chain: T3 chain with E155K
B2: TOPBP1-BRCT0,1,2 segment, wild type (recombinant, fluorescence polarisation) K155E (protein)
chain: T3 chain with E250K

Columns and labels:
Assay in all cases: fluorescence polarisation
[1] = target: T1, Treslin pS1001 fluorescein-labelled …; conditions: for response: chain shown with the change, point at 40 µM protein, parent: est. 83, read off a plot; for Kd: chain shown with the change;, parent: 0.60 ± 0.03 µM
[2] = target: T2, Treslin pT969 fluorescein-labelled …; conditions: for response: chain shown with the change, point at 40 µM protein, parent: est. 70, read off a plot
[3] = target: T3, Treslin pT969 fluorescein-labelled …; conditions: chain shown with the change; point at 40 µM protein; parent: est. 70; read off a plot
[4] = target: T4, Mdb1 pT113 fluorescein-labelled …; conditions: chain shown with the change; point at 40 µM protein; parent: est. 140; read off a plot
[5] = target: T5, Treslin pS1001 fluorescein-labelled …; conditions: chain shown with the change; point at 40 µM protein; parent: est. 83; read off a plot
[6] = target: T6, Mdb1 pT113 fluorescein-labelled …; conditions: chain shown with the change; point at 40 µM protein; parent: est. 140; read off a plot

| Binder | response [1] | Kd [1] | response [2] | other results |
| --- | --- | --- | --- | --- |
| B1 | 41 millidegrees | 350 nM | 30 millidegrees |  |
| B2 | 68 millidegrees | 730 nM | 46 millidegrees | Kd ([2]; chain shown with the change;, parent: 0.94 ± 0.06 µM): 1000 nM |
| GYGLTKSVAETPVHKQIS |  |  |  | response [3]: 0 millidegrees |
| GYGGVMTVPNTPQKPNLQ [Rad4-BRCT1,2 segment, wild type (recombinant, fluorescence polarisation), P32372 K151E] |  |  |  | response [4]: 92 millidegrees |
| GYGDIGVVEESPEKGDEI |  |  |  | response [5]: 12 millidegrees |
| GYGGVMTVPNTPQKPNLQ [Rad4-BRCT1,2 segment, wild type (recombinant, fluorescence polarisation), P32372 K56E; K151E] |  |  |  | response [6]: 30 millidegrees |
